The target in one assay is EVA-4 (UniProt P0C8E9). The assay can be described thus: not stated; Kd of EVA-4 for human chemokines, three readings (source data of Supplementary Fig. 7); method and conditions not told for EVA-4.
Assay [1] addresses EVA-A(C8) (Amblyomma americanum). Nature of the assay: SPR.
Assay [2] has as its target EVA-A(DN) (Amblyomma americanum). The assay can be described thus: SPR.
Assay [3] has as its target EVA-A(L39P) (Amblyomma americanum). The assay can be described thus: SPR. (In general: SPR reads the build-up and loss of mass on a sensor chip optically.)
Assay [4] addresses EVA-A(Y44A) (Amblyomma americanum). The assay can be described thus: SPR.
For assay [5], the target named is EVA-A(DC) (Amblyomma americanum). The assay can be described thus: SPR.
The target in assay [6] is EVA-A(1-98) (A. americanum). The assay can be described thus: SPR.
In assay [7] the target is EVA-A(Y44A) (A. americanum). The assay can be described thus: SPR.
Assay [8] has as its target EVA-A(C8) (A. americanum). The assay can be described thus: SPR.
For assay [9], the target named is EVA-A(21-102) (A. americanum). The assay can be described thus: SPR.
Assay [10] has as its target EVA-A(L39P) (A. americanum). The assay can be described thus: SPR.

Several values for one entry are separate records, joined by “and”; a condition that tells them apart may be missing. Equal entries are not always repeated.

As usually defined, the Kd is the constant that tells how readily two partners part at equilibrium. A high value points to weaker binding. As usually defined, the koff is a measure of how fast the partners let go of each other. A high value points to fast dissociation. As a reminder, the kon is a measure of how fast the partners come together. A high value points to fast association.

Sequence of CCL18 (P55774 21-89): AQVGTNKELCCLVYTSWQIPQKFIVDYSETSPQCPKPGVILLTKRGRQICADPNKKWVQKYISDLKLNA
Sequence of CCL13, Q99616 17-98 (ligand; other documents disagree on this pair) (Q99616 17-98): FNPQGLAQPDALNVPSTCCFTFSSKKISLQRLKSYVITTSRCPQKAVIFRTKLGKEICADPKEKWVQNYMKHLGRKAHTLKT
Sequence of CCL5 (P13501 24-91): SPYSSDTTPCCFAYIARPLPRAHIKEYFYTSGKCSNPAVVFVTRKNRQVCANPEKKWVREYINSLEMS

Consider CCL23 (ligand), for which the Kd is 7.43 nM and 7.41 nM and 7.39 nM with EVA-4; 13 nM and 34.4 nM and 13.6 nM in assay [1]; 0.168 nM and 0.972 nM and 0.384 nM in assay [2]; 1.15 nM and 0.794 nM and 1.49 nM in assay [3]; 15.2 nM and 26.4 nM and 14.7 nM in assay [4]; 0.105 nM and 0.44 nM and 0.794 nM in assay [5]. Moreover, the koff in [1] was 0.00116 s⁻¹ and 0.00157 s⁻¹ and 0.0012 s⁻¹; in assay [3], 0.000123 s⁻¹ and 0.00016 s⁻¹ and 0.000168 s⁻¹; in [4], 0.00168 s⁻¹ and 0.00185 s⁻¹ and 0.00176 s⁻¹. The kon in [1] is 89700 M⁻¹ s⁻¹ and 45800 M⁻¹ s⁻¹ and 87600 M⁻¹ s⁻¹; in assay [2], 53100 M⁻¹ s⁻¹ and 56200 M⁻¹ s⁻¹ and 152000 M⁻¹ s⁻¹; in [3], 107000 M⁻¹ s⁻¹ and 201000 M⁻¹ s⁻¹ and 113000 M⁻¹ s⁻¹; in assay [4] it was 111000 M⁻¹ s⁻¹ and 70100 M⁻¹ s⁻¹ and 120000 M⁻¹ s⁻¹; in assay [5], 144000 M⁻¹ s⁻¹ and 85600 M⁻¹ s⁻¹ and 201000 M⁻¹ s⁻¹.
With “CCL16 (from UniProt O15467 24-120) (ligand)”, the Kd in the assay with EVA-4 was 2.31 nM and 4.95 nM and 5 nM; in [1], 1.95 nM and 1.84 nM; in assay [2], 0.223 nM and 0.225 nM and 0.22 nM; in assay [6], less than 0.1 nM; in assay [3] it was 0.188 nM and 0.138 nM; in assay [4], 0.181 nM and 0.268 nM and 0.148 nM. The Kd in [7] is 0.2 nM; in assay [8], 1.9 nM; in assay [9], 0.22 nM; in [10], 0.17 nM; in [5] it was 0.000499 nM and 0.00352 nM and 0.00269 nM. Also, the off-rate constant (koff) in assay [1] is 0.000666 s⁻¹ and 0.000831 s⁻¹; in assay [2], 0.000191 s⁻¹ and 0.000182 s⁻¹ and 0.000181 s⁻¹; in assay [6] it was less than 0.0001 s⁻¹; in assay [3], 0.000226 s⁻¹ and 0.000159 s⁻¹; in assay [4] it was 0.0001 s⁻¹ and 0.000143 s⁻¹ and 0.000134 s⁻¹; in assay [7] it was 0.00013 s⁻¹. Besides, the koff was 0.00075 s⁻¹ in assay [8], 0.00019 s⁻¹ in assay [9] and 0.00016 s⁻¹ in assay [10]. Also, the association rate constant (kon) is 341000 M⁻¹ s⁻¹ and 451000 M⁻¹ s⁻¹ in assay [1]; 858000 M⁻¹ s⁻¹ and 809000 M⁻¹ s⁻¹ and 826000 M⁻¹ s⁻¹ in assay [2]; 258000 M⁻¹ s⁻¹ in assay [6]; 1.2e+06 M⁻¹ s⁻¹ and 1.15e+06 M⁻¹ s⁻¹ in assay [3]; 552000 M⁻¹ s⁻¹ and 534000 M⁻¹ s⁻¹ and 906000 M⁻¹ s⁻¹ in assay [4]; 664000 M⁻¹ s⁻¹ in [7]. Also, the kon in assay [8] is 396000 M⁻¹ s⁻¹; in assay [9] it was 831000 M⁻¹ s⁻¹; in [10], 1.18e+06 M⁻¹ s⁻¹; in assay [5], 256000 M⁻¹ s⁻¹ and 253000 M⁻¹ s⁻¹ and 265000 M⁻¹ s⁻¹.
As for “CCL13, Q99616 17-98 (ligand; other documents disagree on this pair)”, the Kd in the assay with EVA-4 is 258 nM and 234 nM and 267 nM.
For “CCL18 (from UniProt P55774 21-89) (ligand)”, the Kd in assay [1] is 0.0591 nM and 0.0302 nM and 0.0473 nM; in assay [2] it was 0.000563 nM and 0.000228 nM and 0.000552 nM; in [6], less than 0.1 nM; in [3], 0.00439 nM and 0.00871 nM and 0.0273 nM; in assay [4], 0.0553 nM and 0.0303 nM and 0.0163 nM; in assay [7], less than 0.1 nM. The Kd in assay [8] is less than 0.1 nM; in assay [9], less than 0.1 nM; in [10] it was less than 0.1 nM; in [5] it was 0.00073 nM and 0.00413 nM and 0.00277 nM. The koff in [1] was 5.57e-05 s⁻¹ and 2.29e-05 s⁻¹ and 3.83e-05 s⁻¹; in [2] it was 1.04e-06 s⁻¹ and 4.52e-07 s⁻¹ and 5.08e-07 s⁻¹; in [6], less than 0.0001 s⁻¹; in assay [4] it was 7.08e-05 s⁻¹ and 5.3e-05 s⁻¹ and 3.33e-05 s⁻¹; in assay [7], less than 0.0001 s⁻¹; in assay [8], less than 0.0001 s⁻¹. The koff in assay [9] and in [10] was less than 0.0001 s⁻¹ throughout. The kon in assay [1] was 943000 M⁻¹ s⁻¹ and 758000 M⁻¹ s⁻¹ and 810000 M⁻¹ s⁻¹; in assay [2], 1.86e+06 M⁻¹ s⁻¹ and 1.98e+06 M⁻¹ s⁻¹ and 921000 M⁻¹ s⁻¹; in [6], 443000 M⁻¹ s⁻¹; in assay [3], 3.31e+06 M⁻¹ s⁻¹ and 3.54e+06 M⁻¹ s⁻¹ and 4.37e+06 M⁻¹ s⁻¹; in assay [4], 1.28e+06 M⁻¹ s⁻¹ and 1.75e+06 M⁻¹ s⁻¹ and 2.05e+06 M⁻¹ s⁻¹; in assay [7] it was 1.69e+06 M⁻¹ s⁻¹. The kon in [8] was 837000 M⁻¹ s⁻¹; in assay [9], 1.59e+06 M⁻¹ s⁻¹; in [10], 3.74e+06 M⁻¹ s⁻¹; in assay [5], 496000 M⁻¹ s⁻¹ and 427000 M⁻¹ s⁻¹ and 406000 M⁻¹ s⁻¹.
As to “CCL5 (from UniProt P13501 24-91) (ligand)”, the Kd is 15.9 nM and 16.3 nM and 16 nM in [1]; 2.42 nM (2×) and 2.72 nM in assay [2]; 1.03 nM in assay [6]; 0.0849 nM and 0.0557 nM and 0.0372 nM in assay [3]; 0.145 nM and 0.294 nM and 0.251 nM in assay [4]; 0.23 nM in assay [7]. In addition, the Kd in assay [8] is 16 nM; in assay [9], 2.52 nM; in [10], less than 0.1 nM; in assay [5] it was 0.973 nM and 1.11 nM and 1 nM. The koff in [1] is 0.0113 s⁻¹ and 0.012 s⁻¹ and 0.0111 s⁻¹; in [2], 0.00208 s⁻¹ and 0.00189 s⁻¹ and 0.00187 s⁻¹; in [6] it was 0.00033 s⁻¹; in [3], 9.49e-05 s⁻¹ and 0.000111 s⁻¹ and 5.52e-05 s⁻¹; in assay [4], 0.000189 s⁻¹ and 0.000193 s⁻¹ and 0.000245 s⁻¹; in [7], 0.00021 s⁻¹. The koff is 0.0115 s⁻¹ in assay [8]; 0.00195 s⁻¹ in assay [9]; less than 0.0001 s⁻¹ in assay [10]; 0.000331 s⁻¹ and 0.000413 s⁻¹ and 0.00035 s⁻¹ in assay [5]. For the same substance, the kon in assay [1] is 712000 M⁻¹ s⁻¹ and 738000 M⁻¹ s⁻¹ and 697000 M⁻¹ s⁻¹; in assay [2], 860000 M⁻¹ s⁻¹ and 783000 M⁻¹ s⁻¹ and 688000 M⁻¹ s⁻¹; in assay [6], 354000 M⁻¹ s⁻¹; in assay [3], 1.12e+06 M⁻¹ s⁻¹ and 1.98e+06 M⁻¹ s⁻¹ and 1.48e+06 M⁻¹ s⁻¹; in [4], 1.31e+06 M⁻¹ s⁻¹ and 658000 M⁻¹ s⁻¹ and 976000 M⁻¹ s⁻¹; in [7], 981000 M⁻¹ s⁻¹. Also, the association rate constant (kon) in [8] is 716000 M⁻¹ s⁻¹; in assay [9], 777000 M⁻¹ s⁻¹; in assay [10], 1.53e+06 M⁻¹ s⁻¹; in assay [5], 340000 M⁻¹ s⁻¹ and 372000 M⁻¹ s⁻¹ and 348000 M⁻¹ s⁻¹.
